Reference: publication PMC4333404, “Bcl2 inhibits recruitment of Mre11 complex to DNA double-strand breaks in response to high-linear energy transfer radiation”

Target: T1, Mre11 (UniProt P49959 1-708)
T1 sequence: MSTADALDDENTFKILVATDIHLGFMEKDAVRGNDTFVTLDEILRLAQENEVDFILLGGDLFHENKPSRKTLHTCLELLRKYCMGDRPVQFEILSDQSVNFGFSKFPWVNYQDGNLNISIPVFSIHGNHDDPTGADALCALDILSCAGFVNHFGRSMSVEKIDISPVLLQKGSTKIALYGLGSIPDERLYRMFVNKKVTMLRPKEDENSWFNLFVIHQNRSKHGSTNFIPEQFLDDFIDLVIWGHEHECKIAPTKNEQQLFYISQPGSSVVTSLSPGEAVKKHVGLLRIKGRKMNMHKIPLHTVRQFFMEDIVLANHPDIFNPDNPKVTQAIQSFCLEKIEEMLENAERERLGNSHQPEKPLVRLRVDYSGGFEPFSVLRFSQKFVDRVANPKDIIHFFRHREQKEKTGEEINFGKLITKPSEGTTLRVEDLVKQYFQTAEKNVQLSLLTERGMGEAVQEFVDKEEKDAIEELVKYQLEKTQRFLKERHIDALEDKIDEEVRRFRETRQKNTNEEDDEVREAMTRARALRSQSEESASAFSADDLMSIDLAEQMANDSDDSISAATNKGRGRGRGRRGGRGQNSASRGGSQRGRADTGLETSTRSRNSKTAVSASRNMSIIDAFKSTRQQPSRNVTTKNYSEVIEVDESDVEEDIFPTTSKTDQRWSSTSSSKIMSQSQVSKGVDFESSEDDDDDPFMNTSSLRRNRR
Assay: EMSA; increasing Mre11; 1 mM Mg acetate; no Bcl2; EMSA: 25 mM MOPS pH 7.0, 60 mM KCl, 0.2% Tween, 2 mM DTT, 1 mM Mg(CH3COO)2, 37 C 15 min; 10 pM DNA, 10 nM Mre11; 5% native PAGE in TBE at 4 C
Details: protein: recombinant; tags: Flag; chain copies: 2; label: 5'-32P on TP423; 34 bp duplex (S3[1-34] with S4[1-34]); 3' overhangs 16 nt (TP423) and 15 nt (TP424)

B1: TP423/TP424 3' overhanging duplex (dsDNA)
DNA 1: CTGCAGGGTTTTTGTTCCAGTCTGTAGCACTGTGTAAGACAGGCCAGATC
DNA 2: CACAGTGCTACAGACTGGAACAAAAACCCTGCAGTACTCTACTCATCTC
- binding result: binds
